Results as given in the RNAGym collection of RNA variant scans (doi:10.1073/pnas.2313332121).
This sample holds only a part of the variants without activity.

B1: TPR 5TU (parent)
chain: GGAUCUUCUCGAUCUAACAAAAAAGACAAAUCUGCCACAAAGCUUGAGAGCAUCUUCGGAUGCAGAGGCGGCAGCCUUCGGUGGCGCGAUAGCGCCAACGUUCUCAACUAUGACACGCAAAACGCGUGCUCCGUUGAAUGGAGUUUAUCAUG

Variants of: B1
Test: polymerase ribozyme fitness, log enrichment relative to wild type (log ratio); higher = more active; in vitro selection for triplet polymerase activity
How it was run: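 Genotype fitness is the logarithm of its enrichment divided by wild-type enrichment, using inverse-variance-weighted averages of replicates. That logarithm is base 2. Enrichment was measured by Illumina sequencing of input and output libraries from one triplicate in vitro selection round, with frozen incubation at −7 °C, on PCR-built, transcribed mutant libraries of each subunit of a heterodimeric triplet polymerase ribozyme, retaining genotypes with ≥10 input reads and ≥1 read per output.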

| Variant | polymerase ribozyme fitness (log ratio) |
| --- | --- |
| A40C A52C G86A A98G | -2.37 |
| C51U A91G G100A A110U A121U | ≤ -4.2 |
| A17G A23C A97U C114U | ≤ -4.2 |
| G84A C99U G100U U144A | -4.12 |
| C5A U6A G94U C123U U148G | ≤ -4.2 |
| G58C G83A G84U G92U U135A U139G G141A | ≤ -4.2 |
| C51U U56A A73U G86A | -4.02 |
| G25U U45A | ≤ -4.2 |
| U33G A60G C85A A97U A142C | ≤ -4.2 |
| A3C U4G G58C C93U C149U | -3.55 |
| A21G G50C C93U C118U A138U U145A | ≤ -4.2 |
| U33A G50C A52C C87A C96U C105U U127G U144A | ≤ -4.2 |
| A26C C85U | -1.86 |
| A16C G42U U56C G81U C85G | ≤ -4.2 |
| C57A C85A | -1.28 |
| A23U U55A C57U G68U A73G G80C G94U U104C | ≤ -4.2 |
| C96U A113U G124U | -2.41 |
| C35U G94A C108A A150U | ≤ -4.2 |
| C5U C54U U82A C95G A150U | -1.62 |
| A37U U135A | -2.34 |
| A21C G25U C96A A97G | -3.82 |
| U44C G59A A91U | -4 |
| U4C G50A G83A C87A A91C G92A U146A | ≤ -4.2 |
| A26U U45A G83U G92C A122U | ≤ -4.2 |

| Variant | polymerase ribozyme fitness (log ratio) |
| --- | --- |
| U53A U109G | -0.777 |
| C63A A64C C72U A89U U130G | ≤ -4.2 |
| A23C A98U A113U | -4.18 |
| C87A U101G G124A A142C | -4.02 |
| A30U C54G C95A A98U A122C G141C U144C | ≤ -4.2 |
| U44A C72G C79A A150C | ≤ -4.2 |
| A23U A64C G68C | ≤ -4.2 |
| A49G G83U | -1.22 |
| C38U U53A C105U | 0.169 |
| A3U A52G C96G C131U | -0.0465 |
| A29C U33C U44A G80U C85U C93U G136U | ≤ -4.2 |
| G59A G74A | -3.23 |
| C38A C96G | -0.458 |
| C14G A39U G58A U61G C85U C95U A107C G141C U146C | ≤ -4.2 |
| G86C G92A | ≤ -4.2 |
| A52C C69A C96A | -3.18 |
| C63G C76U | 0.0444 |
| A21G A22G A37C G62C G94C C103A A106C U130A | ≤ -4.2 |
| U6G U7C U55A U135A | -4.01 |
| A28G A60C C76G | ≤ -4.2 |
| C43A U53A C57A C95U | ≤ -4.2 |
| U61A U90G U139C | ≤ -4.2 |
| A40G C76U C95U C116G | -3.42 |
| C27A U61A G86A | ≤ -4.2 |

| Variant | polymerase ribozyme fitness (log ratio) |
| --- | --- |
| A40G U53A A73U C103G | ≤ -4.2 |
| C54U C85A C96U A97C A98G A121U | ≤ -4.2 |
| A47U G62C G84U | -3.86 |
| C36U U44A A122C | -4.15 |
| U31A C96U A115C U146C | -0.845 |
| C85U C87U | 0.308 |
| C8A A12U U61A C79U G84U C85G C118U A119G C129A G143C U148G | ≤ -4.2 |
| A17C A89U | 0.471 |
| U4C A17C G42A G50C U53A G62A U90G A120U | ≤ -4.2 |
| A47C C95U C116A | -0.555 |
| A26U C51U G58C | -2.08 |
| C43U U61G A64C U77G C85U A110U C116G | -4.02 |
| A49U G80A | -3.76 |
| U31C C87A | -4.2 |
| U6G G81C A91G | -2.46 |
| C5G U56A G94C A120G | -1.95 |
| A40C G83A A97G | -1.2 |
| A40C C51A G86C U139C | ≤ -4.2 |
| C5A A20G C85U C93U A97U | -3.46 |
| A60C U82G G84A | -1.71 |
| A39C G88U A97G A122G | ≤ -4.2 |
| G25C U45A G59A U90G G100A C116G | ≤ -4.2 |
| G42U G84U U134C U139G | ≤ -4.2 |
| A3U C93G | -2.5 |

| Variant | polymerase ribozyme fitness (log ratio) |
| --- | --- |
| A52U C54A G70A A89G G92C A119C G126A G141A | ≤ -4.2 |
| C69U C95U | -1.47 |
| U45G C75U C103G C118G | ≤ -4.2 |
| A3C U45A G67U G71C G80C C95A C103A | ≤ -4.2 |
| A12U U55G A60U G83C A137U G141U | ≤ -4.2 |
| C10U A17G A52C C75U C99U U102C U127A U135A | ≤ -4.2 |
| C14G C18U A21G G86C C105U C129A U130C | ≤ -4.2 |
| C36U C76U C85G | -2.42 |
| A40U U82G G92A | -2.82 |
| A12U G50U C72U G126A | -1.33 |
| A119U U144A | -0.171 |
| G50C A122C G143A | -4.06 |
| U4G A49U C57U U82G A91U | ≤ -4.2 |
| C95U U102C | -1.06 |
| A28C G86U | ≤ -4.2 |
| A91C A107U | ≤ -4.2 |
| G62U C96U | -1.14 |
| A28U U55A | -4.13 |
| C95U C99G U104G A110G C116A A142U | ≤ -4.2 |
| U33A C85U U146G A147U A150G | ≤ -4.2 |
| G58U | -0.0298 |
| G25U G46C G50C A66G U90C G100C U104A U146C G152A | ≤ -4.2 |
| U53A G70C C114A | ≤ -4.2 |
| A21G A40U | 0.957 |

| Variant | polymerase ribozyme fitness (log ratio) |
| --- | --- |
| C87G G140C | ≤ -4.2 |
| C43U G81C G88A G133C | ≤ -4.2 |
| A40U G50C C85U | -2.29 |
| G84A C103G C149U | -3.35 |
| U4A G48A C85A C93A A147C | ≤ -4.2 |
| A60G G94A | 0.0761 |
| A3U C8A A17G U56A G59A C85A A120G | ≤ -4.2 |
| C85U U146A | -0.167 |
| A19U U33A G84A G92C G94C | ≤ -4.2 |
| U4G A41C G48C A60U A97G A107U | ≤ -4.2 |
| G11U U53G C57G G59U G94A | -3.74 |
| U9G A23U G58A G59U C79A G81U C85A A120C U139C | ≤ -4.2 |
| C54A U56A G68U U82G G83C G133C | ≤ -4.2 |
| A24G A30G A47U A52C A60C C76A G100A C114A C118G G140A | ≤ -4.2 |
| C76U U135G | -2.79 |
| C32U C63U A91U C96U A113U G124C | ≤ -4.2 |
| C27G C43U C75G U78G C129G G143A | ≤ -4.2 |
| C14U A52U C54A G83U C96G A98U | -3.86 |
| A97U | -0.75 |
| A37G C96U C105G | -3.63 |
| U61G G74U G83A | ≤ -4.2 |
| C116U A142U | -0.344 |
| A22C C69G G81C | -1.85 |
| A49G C51U C95G A137G U144A | ≤ -4.2 |

| Variant | polymerase ribozyme fitness (log ratio) |
| --- | --- |
| A52C U148A | -4.18 |
| C18U A41G C85A U134A | -3.02 |
| A30U G86A | -3.95 |
| A120C C125G G133U | -3.85 |
| A20U G94A | -1.88 |
| C51U C75U C96U G143C | -4.11 |
| A12C G50C A66C C79G C93U C95U U139C A147U | ≤ -4.2 |
| C5A G48C | -0.334 |
| G11C C36U U78C C85G A120C C123A G124A U151C | ≤ -4.2 |
| G65C C99G | ≤ -4.2 |
| A41C G58C U82G A106G A137G | -2.57 |
| C51U A73G G92U G124A | -0.37 |
| G50C C87U A150C U151A | ≤ -4.2 |
| A19U C87G | -4.17 |
| A24C A30U C43A C57U C87G | ≤ -4.2 |
| A47U C75U | -1.41 |
| U56C U109A U127C | -3.65 |
| U45A G58A | -1.48 |
| G50A G70A | -3.76 |
| G46A G84A | -2.74 |
| A17U C38A U53A G74A C95U | ≤ -4.2 |
| A3C G88C | -4.14 |
| C76U A115C | -0.614 |
| U6G C8A G48A U56G C75U G80C G83U G92U C93A C99U G100U | ≤ -4.2 |

| Variant | polymerase ribozyme fitness (log ratio) |
| --- | --- |
| U31A U53A G68U C95A C149G | ≤ -4.2 |
| G48A C76G C87A U90A U146A | ≤ -4.2 |
| A21C G25A G92A G133U A150G | ≤ -4.2 |
| A19U U31C C51U | 0.159 |
| C93A A142G | -2.77 |
| C93A A142U | -3.16 |
| U9A A26U A47C A49G G84A G86C | ≤ -4.2 |
| C36A A64U A107U U139A G140C | ≤ -4.2 |
| G80U C95G C96A | ≤ -4.2 |
| A24C U55A A73U G84U U102A A110U A119C | ≤ -4.2 |
| C54A U55A A106G G141A G143C C149G | ≤ -4.2 |
| G11A A40C A49C G74C C85A C95G G100C A147U | ≤ -4.2 |
| A21C C93A C99U G136U A142U | ≤ -4.2 |
| G92U C125U | -1.4 |
| G11A A21C A24C C43U C85A U111C | ≤ -4.2 |
| A37U A52G C76U C95A | -2.41 |
| C32A C38U G128C U135A | ≤ -4.2 |
| C38A G84A U148G | ≤ -4.2 |
| G34A C95U G136A | -0.0966 |
| A26U C36A G68C G86U G88C | ≤ -4.2 |
| A20G C38U A47C A60G C93U A106G G128U | ≤ -4.2 |
| A12U C14U G50C A60G G74U C85U | ≤ -4.2 |
| A20U U61A | -2.43 |
